The data set is described as follows: soluble on expression in E. coli; label from the status in PepcDB or PDB records.
With “MTKVYIENYGCARNRADGEIMAGLLLSSGYEIVEGEENADIVVVNSCAVKDPTEVKIARRIRELLDRGKKVIVTGCLPHVNPDAIDERVSAVLGVKSIDRIVQAVEYALRGEKLISVPDWRKRNLDKLDFPRLSPRGVHFILPIAEGCLNGCTYCATRSARGVLKSYSPEKIVEWVKWAIRQGYKEIWLSAEDTGCYGFDIGTNLAKLLDEITAIEGEFRIRVGMMNPNHVLKFLDELIEAYKDEKVYKFLHLPVQSGDNEILRRMGRTYTVEEFEEIVNAFRREFPDLNLHTDIIVGFPGESEEAFQRSLELIKRIKPDKVNVSRYSPRPGTIAAKWKQLPGWVVKERSRIMHRVRLQISYEINQRYVGRKVDILVHGEGKKGNVDAVTMNYKHIIIPRGEKGEFARAKVNGATSTYLLGEIVD”, the “soluble on expression in E. coli” value is on record as “soluble”.
The result for “MSPVAAMKRKNGVALWRQIADRIRGEIAAGDHDETGMLPPEMTLAEKFGVNRHTVRSAIAALASEGILEPMQGRGTMIARKERLSFPISLRTRFTAGIGDQVKEMEALLLSHTTEPASADLAARLQLPSGAPLVRLETLRKADTRPVSRSTTWFPADRFAGIGEAYRKSGSITAAFKALGVADYVRISTVISAIHADTQDLADLELSPGAILLVTQALNADMDGVPVQYAVSRFSADTVEFTVEN” reads “not soluble”; that for “MGSDKIHHHHHHMNVAIIGCGYVGYQVAQYWQQKMNFVVSTTTTSPERVPALQSVSQRVFVTSGNDLDSLKSVLHNQDVVLLSVGAKGAEVYEETYLQTAQNLVSCLQQNPSVKQLIYTGSYAVYGDRNGVWVDEETPLAPANLNAQILRKTEDILLSASSENLRVCIFRLGGIYGPGRELLKIFSRYSGTNRPGGEDITNWIHLDDIVGAIEFARNRRLQGIYNLVDDAHLTSRDLLDSLFEKHNLPKVIWDTTVKSTRPYNAWVSNEKLKEAGYQLIHPQMIF”, “not soluble”; that for “MGSDKIHHHHHHMTNDAIVIGSGIGGLVTATQLAAKGAKVLVLERYLIPGGSAGYFERQGYRFDVGASMIFGLGQNGTTNLLTRALTAVNVSQDAIADPVQIHYHLPQGLDLKVDRVYEKFLQNLIAHFPHEEKGIRRFYDECQKVFKCLNSMDLLSLEEPWYLLRVFFQHPLACLGLVKYLPQNAGDFARRYIKDPKLLKFIDMECYCWSVVPSDMTPMINAGMVFSDRHYGGVNYPKGGVGQIAQKLVEGLEKAGGKIQYKARVTKILTEKGKAVGVQLANGKVYRGKRIVSNATRWDTFEQLLPAEEMPLNEKKWQQNYQKSPSFLSLHIGVKESVLPVGTECHHILLEGWEKMTAVEGTIFVSIPTLLDPDLAPSGYHIIHAFTPHWIDDWQELSPSEYKAKKEEAAGRIIDRLEKIFPGLDAGLDYLEVGTPRTHRRFLGRQDGSYGPIPRRKLRGLLKMPFNRTAIPGLYCVGDSTFPGQGLNAVAFSGFACAHRIAVDLGF”, “not soluble”.
With “RLNLKAIAERSESLEDFFTRTLPHYCQQQIAIIDARCEFLYQQSHFFENSFLVKEGLINPERFVPMFGMYGLAEAVNLLCEKEGIAARYGKEAAANEVGYRISAQLAEFVANTPVKYGWQKRAMLHAQSGISSDIGTTPGARLPYGDEPDPITHLQTVAPHHAYYYSGISDILTLDETIKRNPQALVQLCLGAFKAGMREFTANVSGNDLVRVTGYMVRLSDLEKYRAEGSRTNTTWL”, the “soluble on expression in E. coli” value is “not soluble”.
As for “MNGKFDKYEYLQDLMRRRGFAWGSFEIYGGSRGFYDYGPLGATIKRKIERKIREAFIREGFFEIETPDITPEQVFIASGHVEKFVDPVVECKKCGMRFRADHLIEEFLGIDVEGKSAEEMSRIIREHGLKCPECGGELSDVFYFNLMFETYIGPYKDKKAYLRPETAQGIFVNFKRLNAFARNKLPFGVFQIGKAYRNEISPRQGMIRLREFTQAEAEIFFNPNETEHPHFNEVKHEKLKLYPIENQLKELGEVEVTAEEAVKRGYVMNSFFAYYMVMIKKILLDIGIPEDKIRFRQQLPEERAHYSADTWDAEVYSERFGWVECVGLAYRTDYDLSRHMKMSGADLTVMIHYDKPKVVKRIQVSLNMKKVGPKLKADAKKINEIIKSMDQKELEKLVKDLNEKGKVTIEGYELSKEDFIVKEVEEKITGEKIVPHVLEPSFGIDRPFYLLLENSLTVDEDGRIYLKIKKDMAPIEVAVLPLVAKEPLTTIAYEIYRTLQKEGFIVVYDEKDSIGKRYMRYDEIGTPYCVTVDNQTPEDGTVTIRDRDTREQIRVKIEELPRKLKELIFG”, the “soluble on expression in E. coli” value is “soluble”.
On to “MHSLFTLNLDLERAGKVICVQSLPFDTARETLLLLSPVGTQCCYMKNAALFLISHFNLIILESDTWLAYANEAGVNPEEGVADFIRQFNAALPEPVRVDALVGYCSSAPLALLAANQGACRTLLLLNGAYFLKDDGVIKSQYERDVERMMQSIPQGNCAQVYEAVSLLHTKSAYTPSDYRYQQVRPLRELSAFRQYLTFLNSLASLESVRIAQTVKTPTLVWCGSQDRYTDTASSRYIAQLLPHSELVEDPDGQHHDFVDGHERLYLTMTHFLTRHKQRAIQ”, for which the “soluble on expression in E. coli” value is “not soluble”.
Take “MELKILVTGGNVFVPGRLNAHFSTVVYLEHKDRRIIIDPGNLSSMDELEEKFSELGISPDDITDVLFTHVHLDHIFNSVLFENATFYVHEVYKTKNYLSFGTIVGRIYSKVISSWKNVVLLKGEESLFDEKVKVFHTPWHAREHLSFLLDTENAGRVLITGDITPNRLSYYDIIKGYGSVQVKNFLDRVGRIDLLVFPHDAPLKPEVKK”: the “soluble on expression in E. coli” value is “not soluble”.
Regarding “MGSDKIHHHHHHMLDNRIIDELKTIVGADNVATDRQDLICYGYDATQMEFLPDAVVHPGSPDEVSAVLKLANREQFPVYPRGAGSGFTGGALPKGGGIVLVVTRLNRILRIDTENLIAEVEPGVVTEQFQLEVEKLGLFYPPDPASLKFSTLGGNVAENAGGPRCVKYGVTRDFVMGLEVVLPSGEIIRTGGETYKGVVGYDLTRLLCGSEGTLGVITKIIFKLLPLPEAKKTMMTIFDSIDGAAKAVSTIIGNKIIPTTLEFMDHATLQCVEKRFNLGIPASGRAVLIIEVDGDRDLIEKQAARIQELIKPLGLVECKIAKDAAESEALWKVRRLVSPSLRDVNPDKFNEDIVVPRSKVPDVIRVIEKIQQKYAIPIVNFGHAGDGNIHVNIMIDKSVAGQEEKAHEAIAEVFQAALDLNGTMSGEHGVGLAKQPYIHLELKPAQVATMQAIKKALDPNNILNPGKMFPV”, the “soluble on expression in E. coli” value is on record as “not soluble”.
With “MSLTVSARRADAQRNRELILDAAREQLREPGELKMNAVAKACGIGQGTLYRHFPTREDLLVEVYRHDVEELVAAASDMVSTRSPVEALAGWFERVAAYARVKNHVFAAVEAATWRDLAAHSLGPIGEAVELLLAAGRAEGSMRADVEARDVIVLIGWLSRLDDTELDERGPRLLSVLLDGLRTPQGEGHHHHHH”, the “soluble on expression in E. coli” value is “soluble”.
For the sequence “MSYTATNQPVRAPPLNSDYELIDGDPYFTRVVSYFRFSDYVNWAVITASFPLGMKLWEKIVPSQGKGLKPSVVNPVTLRVSTLLGFFGGFCLNYVKSSQRFLGWRENSREVKLDRFEIKQKLSQGVLPYNEHLSKLDDRNKDISNRNSQYSHALLFVIPWFNTTYHPYHQVDLKKYYINREGEENWGFELKPLDEIYAKYGKKF”, the “soluble on expression in E. coli” value was “not soluble”.
For the sequence “SKIADPAFLRRLGYKIEFKPLSLTDYQALWMSLAKDYQMTLVPEFFETLSQLHRDNDVAYFPCLPKDLLGISRDILVFEGKEKIVSSDILTRAWGLYFTVDE”, the “soluble on expression in E. coli” value is on record as “soluble”.
Then “MPRLFLTSDLDSFPVTPQGCSVTLACGVRLQFPAGATATPITIRYRLLLPEPGLVPLGPHDALLSHVLELQPHGVAFQQDVGLWLLFTPPQARRCREVVVRTRNDNSWGDLETYLEEEAPQRLWAHCQVPHFSWFLVVSRPVSNACLVPPEGTLLCSSGHPGVKVIFPPGATEEPRRVSMQVVRMAGRELQALLGEPEAAVSPLLCLSQSGPPSFLQPVTVQLPLPSGITGLSLDRSRLHLLYWAPPAATWDDITAQVVLELTHLYARFQVTHFSWYWLWYTTKNCVGGLARKAWERLRLHRVNLIALQRRRDPEQVLLQCLPRNKVDATLRRLLERYRGPEPSDTVEMFEGEEFFAAFERGIDVDADRPDCVEGRICFVFYSHLKNVKEVYVTTTLDREAQAVRGQVSFYRGAVPVRVPEEAEAARQRKGADALWMATLPIKLPRLRGSEGPRRGAGLSLAPLNLGDAETGFLTQSNLLSVAGRLGLDWPAVALHLGVSYREVQRIRHEFRDDLDEQIRHMLFSWAERQAGQPGAVGLLVQALEQSDRQDVAEEVRAVLELGRRKYQDSIRRMGLAPKDPALPGSSAPQPPEPAQA”, with “soluble”.
Then “MARNAEKAMTALARWRRMKEEEERGPIARRPHDVKDCRNLSDAERFRREIVRDASKKITAIQNPGLGEFKLRDLNDEVNRLIKLKHAWEQRIRELGGTDYRKYAQKELDAIGRETGNSRGYKYFGAAKDLPGVRELFEKSTEGEEQRRHRADLLRNIDAHYFGYLDDEDGRLIPLEKLIEEKNIERINKEFAEKQAQKQQTASDAAPENIYKVEEDDDDDLETQESTVIGEDGRPMTIRHVLLPTQQDIEEMLLEQKKQELMAKYLD”, with “not soluble”; and “SLIHIAIVEDENKDRELLKEYLDRFQAEKGEPLFVHVYPDGEEFLESFSSGKFDILLLDIHMQYMNGMATAQEIRKSDENVLIIFITNLVQYAVQGYSVRAFDFIVKPVEYSVFAQKLYRATQRLNRTEG”, with “soluble”; and “MATTKPYRVLLYYMYTTIENPEEFAAEHLEFCNSLELKGRILVAKEGINGTCSGTVEQTEKYMEAMNNDPRFDGIVFKIDEADGHAFKKMHVRPRPELVTLRLEDDINPHEITGKYLEPKDFYEAMKQEDTVIIDARNDYEFDLGHFKGAIKPDIESFRELPDWIRENKEVLEGKKILTYCTGGIRCEKFSGWLVREGYEDVSQLHGGIVTYGKDPEVQGELWDGQCYVFDERIAVPVNQKEHVIVGKDHFTGEPCERYVNCANPECNKKILCSEENEAKYLRACSHECRVSPRNRYVIQHELTEEQVAAALEQIEAGKLEHHHHHH”, with “not soluble”.
On to “MNQPIGIADSSRPKTNVRLTISANNLMDLDVFSKSDPICLIYEKTSGRKATTTEEITVPTWKDKQWTERGRTEVVMNNLNPQFTKTFLLPYFFEETQLLRFEIYDADSPTVGQDLSSHDFLGRFECVLAQIVSYSTLKAHLGKTGQIGAQWRNKDKNTKTGSITIYAEEDEKAEKIQFDVCGEGLDKKDFFGKSDPYLNFKRKFDDGSTHLIHRTEVKPKTLDPRWATVQINTQTLCAKDGDRPIIIECYDHDKWKKGEEPRGDAKFSRDDLIGTAQTTLNELLRGSSDAVEILLTNEKKKAKKGDKYKCSGTLKIWNSRIVIEPTFLDFISGGTQLDFAVAVDFTASNGPPKSSSSLHFMSADRPNQYELALRSVLSICQHYNSSKTFEAFGFGAKLPNQSSVSAIFPLDLQRGTSEVVGITGVMTAYRHALSNVQLYGPTNFAPIIENVARKAQNMIHDSARYQILLIITDGIISDMHATIRSIISASGLPLSIIIIGVGNEDFEKMHELDSDDALLQQDSRIAQRDIVQFVTMREFLNNGQGLYLDPDVIQENLAREVLYEVPAQLTGYMKQRGFQPRPVDDPWRRDSPPPEFDPILDGTGRRAPMLQAPPAGFQYPVYADTSIASAPPMY”, for which the “soluble on expression in E. coli” value was “not soluble”.
For “MKIQMKTPLVELDGDEMTRVLWPLIKDKLLLPFIDLQTEYYDLGIEERDRTNDQITIDAAEAIKKYGVGVKNATITPNQDRVEEYGLKEQWKSPNATVRAMLDGTVFRKPIMVKNIKPSVRSWQKPIVVGRHAYGDFYKNAEIFAEAGGKLEIVVTDKNGKETRQTIMEVDEPAIVQGIHNTVASIGHFARACFEYSLDQKIDCWFATKDTISKQYDQRFKIIFEEIFAQEYKEKFAAAGIEYFYTLIDDVVARMMKTEGGMLWACKNYDGDVMSDMVASAFGSLAMMSSVLVSPYGYFEYEAAHGTVQRHYYQHLKGERTSTNPVALIYAWTGALRKRGELDGTPDLCAFCDSLEAITIECIESGYMTGDLARICEPAAIKVLDSIEFIDELGKRLQQLNK”, the “soluble on expression in E. coli” value was “soluble”.

Values taken from the DeepSol protein solubility set.
